Data: patent US20030166537A1, “Use of GDNF for treating corneal defects” (Biopharm Gesellschaft Zur Biotechnologischen Entwicklung …, priority 1999, published 2003)

Experiments:
[1] = system: corneal ulcer; test: topical therapy of corneal ulcer in a human patient; assay type: in vivo; conditions: one patient
Experimental: […] Corneal ulcer accompanied by massive inflammation on the left. Epithelial defect of 3.8×3.0 mm in size, furthermore ulcus of corneal stroma in form of a punched-out defect comprising 80% of the thickness of the cornea. No pain sensation of the cornea and significant accompanying inflammation of the eye. The patient was treated with recombinant human (rh) GNDF (0.2 mg/ml) (25 μl/dose) in 2 hours intervals for 48 hours, then the doses were reduced to 20 μl 6 times per day. After healing of the epithelium the concentration was reduced to 0.1 mg/ml, and 20 μl doses were given 5 times per day. For adminstration, lyophilized recombinant human GDNF was diluted in sterile balanced salt solution (Alcon, Freiburg Germany).

[2] = system: corneal epithelial cells; test: in vitro wound healing model with herbimycin A; assay type: cell-based; conditions: 250 ng/ml GDNF alone; 18 hours
Experimental: (§1) For in vitro wound healing assays primary corneal epithelial cells and cells from the corneal epithelial cell line were seeded at a density of 5×10^5 onto 60 mm plastic dishes with 2 mm grid (Sarstedt, Numbrecht, Germany) and cultured for 2 days until subconfluency. For experiments with artemin primary cultured rabbit corneal epithelial cells were used. These cells had been isolated with Dispase (1,2 U/ml) and trypsin/EDTA. Rabbit cells had been cultured in medium 500 with additives (Cascade Biologies).
The cell layer was injured under the microscope by inducing several parallel scratches with a soft plastic cell scrubber (Falcon, Becton and Dickinson, Heidelberg, Germany). The tip of the scrubber was cut and measured about 1 mm and consequently the width of the scratch in the cell layer was also about 1 mm. Selected areas in the dishes were marked with a very fine marker pen and consecutive images were taken at different time points at 5×magnification under an inverted phase contrast microscope (Axiovert 25, Zeiss, Jena, Germany) equipped with a video camera. […] For each condition four representative areas were evaluated within three dishes. […] 18 hours later the mean diameter of the same scratch was calculated again and expressed in percent of the diameter at the beginning of the experiment. […]

[3] = molecular target: T1, Ret (Homo sapiens, UniProt P07949); test: immuno-precipitation and western blot of tyrosine-phosphorylated Ret in cultured corneal epithelial cells; assay type: cell-based; conditions: GDNF 200 ng/ml vs serum-free control cultures
T1 construct: The level of phosphorylated Ret (approximately 150 kD) in cultured corneal epithelial cells (control) was low prior to addition of GDNF; endogenous in cells; host or cells: SV40-transformed human corneal epithelial cell line (Araki-Sasaki et al., 1995)

[4] = system: FAK, Pyk2, cRaf, MEK1, Erk 1 and 2, Elk, RSK; test: western blot of phosphorylated intracellular signaling proteins in corneal epithelial cells; assay type: cell-based, human
Experimental: In order to investigate which protein kinase cascades are activated by GDNF and artemin, corneal epithelial cells from the cell line were seeded at a density of 5×10^5 cells/75 cm^2 and cultured in SHEM with 10% FBS for one day. Cultures were then washed with PBS and incubated in serum-free SHEM without additives or with GDNF (200 ng/ml) or with artemin (250 ng) for 10 to 40 minutes. After washing with PBS, cultured cells were solubilized in lysis buffer containing 50 mM Tris2Cl (pH8.0), 150 mM NaCl, 0.02% sodium azide, 100 μg/ml phenylmethylsulfonyl fluoride, 1 mM Na3VO4, 1% Triton X-100 and a mixture of several protease inhibitors [complete™, Boehringer Mannheim (1 tablet/30 ml buffer)]. 80 μg total protein per lane was fractionated by NuPAGE 10% SDS-MOPS-Bis-Tris gel or NuPAGE 3-8% Tris-acetate gel (all from NOVEX, San Diego, Calif.) and blotted onto a nitrocellulose membrane. Phosphorylated proteins were detected with phospho-specific antibodies and visualized with the ECL western blot analysis system (Amersham). Antibodies against phospho-Raf(ser259), phospho-MEK1/2(ser217/221), phospho-MAPK (Erk1/2) (thr202/tyr204), phospho-p90 ribosomal S6 kinase (RSK) (ser381) and phospho-Elk-1(ser383) were obtained from New England Biolabs (Beverly, Mass.). Antibody against phospho-FAK (tyr397/tyr407/tyr576/tyr577/tyr861/tyr925) and phospho-Pyk2 (tyr402/tyr579/tyr/580/tyr881) were purchased from Biosource (Camarillo, Calif., USA). A monoclonal antibody against phospho-tyrosine came from Sigma (Deisenhofen, Germany).

[5] = system: primary human corneal epithelial cells; test: in vitro wound healing assay (scratch wound), primary cells; assay type: cell-based; conditions: 250 ng/ml; 18 h; control less than 10%
Experimental: as §1
(§2) The cell layer was injured under the microscope by inducing several parallel scratches with a soft plastic cell scrubber (Falcon, Becton and Dickinson, Heidelberg, Germany). The tip of the scrubber was cut and measured about 1 mm and consequently the width of the scratch in the cell layer was also about 1 mm. Selected areas in the dishes were marked with a very fine marker pen and consecutive images were taken at different time points at 5×magnification under an inverted phase contrast microscope (Axiovert 25, Zeiss, Jena, Germany) equipped with a video camera. Following the experimental injury dishes were incubated in SHEM medium either containing no growth factors (control) or containing either GDNF (250 ng/ml) (recombinant human GDNF expressed in E. coli), NGF (250 ng/ml) (Boehringer Mannheim, Germany) or EGF ([…]). For experiments investigating artemin cells were cultured in medium 500 without additives and 250 ng artemin was added. For each condition four representative areas were evaluated within three dishes. The mean diameter of the scratch in each representative area was set as 100% at the beginning of the experiment. 18 hours later the mean diameter of the same scratch was calculated again and expressed in percent of the diameter at the beginning of the experiment.

[6] = system: corneal epithelial cells from the SV40 transformed cell line; test: in vitro wound healing assay (scratch wound), cell line; assay type: cell-based, human; conditions: 250 ng/ml; 18 h; control 20%±4.5
Experimental: as §1, §2

[7] = rhGDNF 0.2 mg/ml eye drops, topical
[8] = GDNF 200 ng/ml, within 10 minutes
[9] = GDNF 200 ng/ml, within 40 minutes

T1 sequence (P07949 29-1114): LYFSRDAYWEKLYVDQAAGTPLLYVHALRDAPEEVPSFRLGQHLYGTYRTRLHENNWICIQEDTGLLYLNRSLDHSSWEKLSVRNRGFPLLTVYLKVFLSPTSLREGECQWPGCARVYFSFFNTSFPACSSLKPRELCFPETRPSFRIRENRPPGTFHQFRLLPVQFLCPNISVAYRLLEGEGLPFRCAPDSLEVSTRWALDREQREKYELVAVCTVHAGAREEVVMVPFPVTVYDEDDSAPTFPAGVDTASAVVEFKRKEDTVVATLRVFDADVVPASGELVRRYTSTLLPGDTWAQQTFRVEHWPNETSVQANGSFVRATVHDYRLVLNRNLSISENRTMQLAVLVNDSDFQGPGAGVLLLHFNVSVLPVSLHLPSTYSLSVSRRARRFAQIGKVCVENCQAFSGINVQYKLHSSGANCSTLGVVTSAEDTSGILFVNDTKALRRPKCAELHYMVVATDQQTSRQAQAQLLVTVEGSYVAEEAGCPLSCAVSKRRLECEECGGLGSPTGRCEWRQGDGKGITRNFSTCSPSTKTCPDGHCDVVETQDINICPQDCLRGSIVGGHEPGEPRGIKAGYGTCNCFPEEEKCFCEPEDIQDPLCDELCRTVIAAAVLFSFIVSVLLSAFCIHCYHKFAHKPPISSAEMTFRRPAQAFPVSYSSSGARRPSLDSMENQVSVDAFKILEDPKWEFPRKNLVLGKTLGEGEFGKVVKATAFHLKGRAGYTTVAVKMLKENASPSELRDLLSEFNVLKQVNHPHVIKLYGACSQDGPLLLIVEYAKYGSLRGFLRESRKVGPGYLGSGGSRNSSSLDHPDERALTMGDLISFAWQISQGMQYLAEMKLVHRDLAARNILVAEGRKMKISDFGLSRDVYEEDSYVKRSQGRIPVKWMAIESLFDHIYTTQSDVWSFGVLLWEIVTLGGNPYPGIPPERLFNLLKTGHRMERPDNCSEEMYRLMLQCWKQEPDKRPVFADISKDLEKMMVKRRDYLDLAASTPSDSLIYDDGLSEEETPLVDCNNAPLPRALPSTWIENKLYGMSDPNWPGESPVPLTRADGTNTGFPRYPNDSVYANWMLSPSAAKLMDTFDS

B1: GDNF: recombinant human GDNF having the amino acid sequence of human wild-type GDNF (GenBank L19063, L15306) (protein)
chain: SPDKQMAVLPRRERNRQAAAANPENSRGKGRRGQRGKNRGCVLTAIHLNVTDLGLGYETKEELIFRYCSGSCDAAETTYDKILKNLSRNRRLVSDKVGQACCRPIAFDDDLSFLDDNLVYHILRKHSAKRCGCI
B1 was tested, and the “start of wound healing” value [1, 7] was 2 days, the “time to complete wound healing of the epithelium” value [1, 7] was 3 weeks and the “inflammation and subjective afflictions after healing of the epithelium” value ([1]; rhGDNF topical) was “significant reduction”. For the same molecule, the “thickness of the stroma” value ([1]; rhGDNF topical) was “continuous increase”, the “wound gap filled with cells” value [2] was 37.9±8.1% and the “time to induction of tyrosine phosphorylation of Ret” value [3] was at most 5 min. For the same molecule, the “serine phosphorylation of Elk” value [4, 8] was “significantly induced”, the “serine phosphorylation of MEK1” value [4, 8] was “significantly induced” and the “serine phosphorylation of cRaf” value [4, 8] was “significantly induced”. For the same molecule, the “tyrosine/threonine phosphorylation of Erk 1 and 2” value [4, 8] was “significantly induced”, the “phosphorylation of Pyk2” value [4, 9] was “phosphorylated” and the “tyrosine phosphorylation of FAK” value [4, 9] was “gradually increased”. The “phosphorylation of RSK” value ([4]; in response to GDNF) was “not detectable”, the “gap in the cell monolayer filled” value [5] was 16.5±6% and the “gap in the cell monolayer filled” value [6] was 30%±6.9.
